Paper PMC9800556, “Kinetics of DNA strand transfer between polymerase and proofreading exonuclease active sites regulates error correction during high-fidelity replication” (The Journal of Biological Chemistry, 2022)

How the values were obtained:
[1] = target: T1, T7 DNA polymerase (T7 DNA pol; T7 gp5 + E. coli thioredoxin) (Escherichia phage T7, UniProt P00581); test: rapid-quench ssDNA excision, denaturing PAGE, global fit (KinTek Explorer); type: biochemical; conditions: read-out: Best fit
T1 construct: gene 5; wild-type exo-proficient (x+) gp5 catalytic subunit, purified as previously described, reconstituted with at least twofold molar excess of E. coli thioredoxin; with Thioredoxin 1
T1 sequence (P00581 whole entry): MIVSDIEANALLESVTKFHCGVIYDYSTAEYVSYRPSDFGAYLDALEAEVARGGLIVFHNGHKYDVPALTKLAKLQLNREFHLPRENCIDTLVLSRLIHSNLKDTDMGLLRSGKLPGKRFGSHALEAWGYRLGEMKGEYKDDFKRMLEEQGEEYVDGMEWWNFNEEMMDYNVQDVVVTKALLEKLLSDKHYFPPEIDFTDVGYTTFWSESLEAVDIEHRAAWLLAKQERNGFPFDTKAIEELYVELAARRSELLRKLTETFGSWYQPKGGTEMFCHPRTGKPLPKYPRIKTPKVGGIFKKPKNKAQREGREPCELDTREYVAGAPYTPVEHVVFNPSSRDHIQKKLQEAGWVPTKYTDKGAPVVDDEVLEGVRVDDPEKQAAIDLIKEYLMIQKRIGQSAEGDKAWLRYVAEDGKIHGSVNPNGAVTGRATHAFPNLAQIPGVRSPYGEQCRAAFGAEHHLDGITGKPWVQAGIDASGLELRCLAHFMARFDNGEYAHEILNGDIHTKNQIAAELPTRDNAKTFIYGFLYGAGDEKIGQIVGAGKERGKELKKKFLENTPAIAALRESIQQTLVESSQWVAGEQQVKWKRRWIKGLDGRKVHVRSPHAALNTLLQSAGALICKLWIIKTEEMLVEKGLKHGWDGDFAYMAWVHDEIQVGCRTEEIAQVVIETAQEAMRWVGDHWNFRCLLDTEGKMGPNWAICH
T1 sequence (P0AA25 2-109 partner): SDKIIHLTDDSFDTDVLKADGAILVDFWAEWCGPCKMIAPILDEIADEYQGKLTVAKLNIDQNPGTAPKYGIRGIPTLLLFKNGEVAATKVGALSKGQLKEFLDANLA
Text: rapid-quench ssDNA excision, denaturing PAGE, global fit (KinTek Explorer) on T7 DNA polymerase (T7 DNA pol; T7 gp5 + E. coli thioredoxin) | dCMP binds to the free enzyme, acting as a weak competitive inhibitor for ssDNA binding

[2] = target: T2, T7 DNA polymerase gp5 (wild-type, exo+);thioredoxin (accessory protein) (bacteriophage T7;Escherichia coli, UniProt P00581;P0AA25 1-704;2-109, |); test: stopped-flow fluorescence anisotropy, global fit (with tCo-27-PThio titration); 12.5 mM Mg2+; k1 1100 uM-1 s-1, k-1 44 s-1; exo site; T7 reaction buffer (composition and pH not given in the material), 12.5 mM Mg2+; 20 C stated for rapid-quench; conditions: protein: recombinant;recombinant; tags: ;; copies: 1;1; label: 5' 6-FAM; single strand
T2 sequence (P00581 whole entry, chain 1 of 2): as the sequence (P00581 whole entry) above
T2 sequence (P0AA25 2-109, chain 2 of 2): as the sequence (P0AA25 2-109 partner) above

[3] = target: T2, T7 DNA polymerase gp5 (wild-type, …); test: equilibrium fluorescence titration (Trp-tCo FRET), quadratic fit; 2 uM thioredoxin; net Kd over pol, intermediate and exo sites; Mg2+ not stated for this titration; T7 reaction buffer (composition and pH not given in the material), 12.5 mM Mg2+; 20 C stated for rapid-quench; conditions: protein: recombinant;recombinant; tags: ;; copies: 1;1; label: tCo; primer/template, 18 nt template 5' overhang, 3'-terminal C:C mismatch
[4] = target: T2, T7 DNA polymerase gp5 (wild-type, …); test: equilibrium fluorescence titration (Trp-tCo FRET), quadratic fit; 12.5 mM Mg2+, 2 uM thioredoxin; net Kd over all sites; T7 reaction buffer (composition and pH not given in the material), 12.5 mM Mg2+; 20 C stated for rapid-quench; conditions: protein: recombinant;recombinant; tags: ;; copies: 1;1; label: tCo; primer/template, 18 nt template 5' overhang, A:A mismatch buried by one terminal C:G pair
[5] = target: T2, T7 DNA polymerase gp5 (wild-type, …); test: equilibrium fluorescence titration (Trp-tCo FRET), hyperbolic fit; 12.5 mM Mg2+; exo site; T7 reaction buffer (composition and pH not given in the material), 12.5 mM Mg2+; 20 C stated for rapid-quench; conditions: protein: recombinant;recombinant; tags: ;; copies: 1;1; label: tCo; single strand

## Nc1ccn([C@H]2C[C@H](O)[C@@H](COP(=O)(O)O)O2)c(=O)n1 [dCMP]
[1]
  Ki: 5650 µM

## CCGTCGCAGCCGTCCAACCAACTACAC (ssDNA, Sp phosphorothioate at the 3'-terminal linkage (A*C)) [FAM-27-PThio]
[2]
  Kd: 0.04 ± 0.0014 µM

B1: tCo-27-PThio/45-3'MM-PThio (dsDNA)
DNA 1: CCGTCGCAGCCGTCCAACCAACTACAC
DNA 2: GGACGGCATTGGATCGATCTGTAGTTGGTTGGACGGCTGCGACGG
modifications: primer: tCo at position 25, Sp phosphorothioate at the 3'-terminal linkage; template: phosphorothioate at the 3'-terminal linkage
[3]
  Kd: 0.0007 ± 0.0001 µM

B2: tCo-27-PThio/45-BMM-PThio (dsDNA)
DNA 1: CCGTCGCAGCCGTCCAACCAACTACAC
DNA 2: GGACGGCATTGGATCGATGAGTAGTTGGTTGGACGGCTGCGACGG
modifications: primer: tCo at position 25, Sp phosphorothioate at the 3'-terminal linkage; template: phosphorothioate at the 3'-terminal linkage
[4]
  Kd: ~0.0005 µM

B3: tCo-27-PThio (ssDNA)
DNA: CCGTCGCAGCCGTCCAACCAACTACAC
modifications: tCo (1,3-diaza-2-oxophenoxazine, C analog) at position 25; Sp phosphorothioate at the 3'-terminal linkage
[5]
  Kd: ~0.06 µM
